According to PMC4351732 (Structure (London, England : 1993), 2015):

Biological target: the molecule itself
Test: crystal structure

B1: human NAPE-hydrolyzing phospholipase D (NAPE-PLD), truncated form Δ47 (D47 to F393) (enzyme, UniProt Q6IQ20 47-393, looked up)
chain: DYRLEEDVTKSKKGKDGRFVNPWPTWKNPSIPNVLRWLIMEKDHSSVPSSKEELDKELPVLKPYFITNPEEAGVREAGLRVTWLGHATVMVEMDELIFLTDPIFSSRASPSQYMGPKRFRRSPCTISELPPIDAVLISHNHYDHLDYNSVIALNERFGNELRWFVPLGLLDWMQKCGCENVIELDWWEENCVPGHDKVTFVFTPSQHWCKRTLMDDNKVLWGSWSVLGPWNRFFFAGDTGYCPAFEEIGKRFGPFDLAAIPIGAYEPRWFMKYQHVDPEEAVRIHTDVQTKKSMAIHWGTFALANEHYLEPPVKLNEALERYGLNAEDFFVLKHGESRYLNNDDENF
- stoichiometry N: 2
